Laboratory results reported in paper doi:10.64898/2025.12.08.693004 (bioRxiv, 2025).
Blank lines part the entries; values can stand above or below the binder they belong to.

Legend:
Test in all cases: BLI
Rat EphB1-Fc protein = molecular target: T1, Rat EphB1-Fc protein (rat, UniProt P09759 18-538)
T1 sequence (looked up): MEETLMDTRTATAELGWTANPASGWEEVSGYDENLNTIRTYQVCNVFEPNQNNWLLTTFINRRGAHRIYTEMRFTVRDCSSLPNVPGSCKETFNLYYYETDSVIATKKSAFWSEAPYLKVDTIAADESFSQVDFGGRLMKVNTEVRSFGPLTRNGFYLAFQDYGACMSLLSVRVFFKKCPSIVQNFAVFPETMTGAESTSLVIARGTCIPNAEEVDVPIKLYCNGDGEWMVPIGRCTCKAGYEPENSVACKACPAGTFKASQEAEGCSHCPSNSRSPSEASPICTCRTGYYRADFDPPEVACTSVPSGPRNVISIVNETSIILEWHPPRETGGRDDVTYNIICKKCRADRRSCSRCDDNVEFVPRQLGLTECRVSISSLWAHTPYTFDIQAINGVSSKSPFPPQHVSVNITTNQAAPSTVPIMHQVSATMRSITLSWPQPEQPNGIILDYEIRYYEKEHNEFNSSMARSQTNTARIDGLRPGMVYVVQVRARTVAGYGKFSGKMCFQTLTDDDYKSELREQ

Human EphB3-Fc = molecular target: T2, Human EphB3-Fc (human, UniProt P54753 38-550)
T2 sequence (looked up): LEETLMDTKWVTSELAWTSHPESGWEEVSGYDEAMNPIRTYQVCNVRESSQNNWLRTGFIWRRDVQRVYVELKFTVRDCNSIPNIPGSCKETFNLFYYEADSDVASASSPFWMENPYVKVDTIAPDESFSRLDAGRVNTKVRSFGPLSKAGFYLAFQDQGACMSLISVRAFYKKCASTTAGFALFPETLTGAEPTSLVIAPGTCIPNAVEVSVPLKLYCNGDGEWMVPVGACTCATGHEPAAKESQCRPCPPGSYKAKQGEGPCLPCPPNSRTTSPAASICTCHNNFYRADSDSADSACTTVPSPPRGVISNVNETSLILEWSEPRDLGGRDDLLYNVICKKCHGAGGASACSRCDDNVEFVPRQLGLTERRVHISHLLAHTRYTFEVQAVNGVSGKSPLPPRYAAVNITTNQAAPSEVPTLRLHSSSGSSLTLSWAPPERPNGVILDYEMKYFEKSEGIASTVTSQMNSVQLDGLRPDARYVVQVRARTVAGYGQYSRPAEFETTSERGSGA

Human EphB1-His = molecular target: T3, Human EphB1-His (human, UniProt P54762 18-540)
T3 sequence (looked up): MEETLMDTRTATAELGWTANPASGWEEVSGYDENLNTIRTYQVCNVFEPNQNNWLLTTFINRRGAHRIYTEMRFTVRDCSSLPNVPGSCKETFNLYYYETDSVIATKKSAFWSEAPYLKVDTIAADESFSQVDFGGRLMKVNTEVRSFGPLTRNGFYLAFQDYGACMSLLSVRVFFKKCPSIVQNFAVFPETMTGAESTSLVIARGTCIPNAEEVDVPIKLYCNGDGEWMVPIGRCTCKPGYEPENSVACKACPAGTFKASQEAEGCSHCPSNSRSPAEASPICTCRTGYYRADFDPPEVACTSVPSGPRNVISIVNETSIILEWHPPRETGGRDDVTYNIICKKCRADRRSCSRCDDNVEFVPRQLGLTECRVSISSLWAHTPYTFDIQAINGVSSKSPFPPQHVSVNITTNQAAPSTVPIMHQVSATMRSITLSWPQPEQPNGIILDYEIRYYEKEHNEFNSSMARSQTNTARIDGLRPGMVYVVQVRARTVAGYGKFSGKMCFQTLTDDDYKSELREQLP

Human EphB2-His = molecular target: T4, Human EphB2-His (human, UniProt P29323 19-543)
T4 sequence (looked up): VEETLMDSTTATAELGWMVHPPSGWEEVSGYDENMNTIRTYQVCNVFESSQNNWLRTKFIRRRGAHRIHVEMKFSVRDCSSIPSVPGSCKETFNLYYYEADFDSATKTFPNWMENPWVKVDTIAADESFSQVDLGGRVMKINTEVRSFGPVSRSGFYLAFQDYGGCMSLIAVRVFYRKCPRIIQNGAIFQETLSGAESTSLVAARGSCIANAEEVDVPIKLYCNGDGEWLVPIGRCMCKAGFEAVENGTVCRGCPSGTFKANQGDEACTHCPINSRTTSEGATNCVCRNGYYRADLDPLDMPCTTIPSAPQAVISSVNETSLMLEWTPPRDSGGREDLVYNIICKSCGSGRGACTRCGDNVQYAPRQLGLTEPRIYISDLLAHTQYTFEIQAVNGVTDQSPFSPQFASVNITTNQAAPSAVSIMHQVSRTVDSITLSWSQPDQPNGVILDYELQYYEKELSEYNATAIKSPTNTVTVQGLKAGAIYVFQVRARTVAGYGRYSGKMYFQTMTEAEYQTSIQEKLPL

Human EphB4-His = molecular target: T5, Human EphB4-His (human, UniProt P54760 16-539)
T5 sequence (looked up): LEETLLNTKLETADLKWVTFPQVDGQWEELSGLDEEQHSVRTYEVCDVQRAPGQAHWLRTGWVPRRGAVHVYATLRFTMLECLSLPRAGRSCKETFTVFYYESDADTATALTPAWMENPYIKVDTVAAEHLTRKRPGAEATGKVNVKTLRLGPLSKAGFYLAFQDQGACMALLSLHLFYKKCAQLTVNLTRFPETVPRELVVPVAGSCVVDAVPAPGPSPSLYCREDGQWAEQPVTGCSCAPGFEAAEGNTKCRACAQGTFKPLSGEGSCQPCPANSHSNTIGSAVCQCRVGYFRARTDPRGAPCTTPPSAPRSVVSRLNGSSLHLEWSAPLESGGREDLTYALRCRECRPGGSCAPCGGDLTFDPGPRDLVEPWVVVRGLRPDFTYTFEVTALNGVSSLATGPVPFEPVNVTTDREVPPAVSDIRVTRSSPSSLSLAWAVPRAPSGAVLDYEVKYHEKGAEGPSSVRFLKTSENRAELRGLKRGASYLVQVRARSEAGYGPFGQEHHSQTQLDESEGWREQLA

binding result (Rat EphB1-Fc protein): binds
binding result (Human EphB3-Fc): binds
B1: Mouse EphrinB2-His protein (ligand, UniProt P52800 29-232, looked up)
chain: RSIVLEPIYWNSSNSKFLPGQGLVLYPQIGDKLDIICPKVDSKTVGQYEYYKVYMVDKDQADRCTIKKENTPLLNCARPDQDVKFTIKFQEFSPNLWGLEFQKNKDYYIISTSNGSLEGLDNQEGGVCQTRAMKILMKVGQDASSAGSARNHGPTRRPELEAGTNGRSSTTSPFVKPNPGSSTDGNSAGHSGNNLLGSEVALFA

binding result (Human EphB1-His): binds
binding result (Human EphB2-His): binds
binding result (Human EphB4-His): binds
B2: Human EphrinB2-Fc (Fc fusion, UniProt P52799 28-229, looked up)
chain: IVLEPIYWNSSNSKFLPGQGLVLYPQIGDKLDIICPKVDSKTVGQYEYYKVYMVDKDQADRCTIKKENTPLLNCAKPDQDIKFTIKFQEFSPNLWGLEFQKNKDYYIISTSNGSLEGLDNQEGGVCQTRAMKILMKVGQDASSAGSTRNKDPTRRPELEAGTNGRSSTTSPFVKPNPGSSTDGNSAGHSGNNILGSEVALFA
